No end group written: not given here.
These substances were tested against T1, REFACTO® (factor VIII-like polypeptide, amino acids 1-743 and 1638 through 2332 of human factor VIII) (Homo sapiens, UniProt P00451) (assay: Phage ELISA of third-round isolates for binding to the factor VIII target). Conditions: TN7 library phage isolates; HRP anti-M13, TMB, absorbance at OD630.
T1 construct: amino acids 1-743 and 1638 through 2332 of human factor VIII; purchased Genetics Institute, Inc. (Cambridge, Mass.)
T1 sequence (P00451 20-762): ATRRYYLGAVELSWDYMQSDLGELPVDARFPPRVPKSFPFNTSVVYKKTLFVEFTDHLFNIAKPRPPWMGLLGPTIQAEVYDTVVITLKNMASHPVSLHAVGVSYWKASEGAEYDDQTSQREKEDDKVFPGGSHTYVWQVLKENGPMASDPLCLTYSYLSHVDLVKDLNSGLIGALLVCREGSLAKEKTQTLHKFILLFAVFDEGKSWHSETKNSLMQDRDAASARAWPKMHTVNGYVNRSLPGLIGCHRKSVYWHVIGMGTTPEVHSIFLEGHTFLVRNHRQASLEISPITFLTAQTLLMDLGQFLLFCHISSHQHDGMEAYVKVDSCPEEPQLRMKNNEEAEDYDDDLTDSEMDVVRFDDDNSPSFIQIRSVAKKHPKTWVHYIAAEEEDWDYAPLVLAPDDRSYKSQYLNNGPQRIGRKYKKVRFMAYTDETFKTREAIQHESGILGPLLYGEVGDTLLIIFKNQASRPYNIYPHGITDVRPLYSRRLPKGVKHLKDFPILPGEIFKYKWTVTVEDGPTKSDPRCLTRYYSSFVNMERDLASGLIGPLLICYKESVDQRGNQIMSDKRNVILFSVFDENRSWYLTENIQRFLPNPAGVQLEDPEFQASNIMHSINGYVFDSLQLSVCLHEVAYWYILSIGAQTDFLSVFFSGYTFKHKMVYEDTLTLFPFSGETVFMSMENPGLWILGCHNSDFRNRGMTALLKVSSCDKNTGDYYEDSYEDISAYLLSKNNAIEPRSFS
T1 sequence (P00451 1657-2351): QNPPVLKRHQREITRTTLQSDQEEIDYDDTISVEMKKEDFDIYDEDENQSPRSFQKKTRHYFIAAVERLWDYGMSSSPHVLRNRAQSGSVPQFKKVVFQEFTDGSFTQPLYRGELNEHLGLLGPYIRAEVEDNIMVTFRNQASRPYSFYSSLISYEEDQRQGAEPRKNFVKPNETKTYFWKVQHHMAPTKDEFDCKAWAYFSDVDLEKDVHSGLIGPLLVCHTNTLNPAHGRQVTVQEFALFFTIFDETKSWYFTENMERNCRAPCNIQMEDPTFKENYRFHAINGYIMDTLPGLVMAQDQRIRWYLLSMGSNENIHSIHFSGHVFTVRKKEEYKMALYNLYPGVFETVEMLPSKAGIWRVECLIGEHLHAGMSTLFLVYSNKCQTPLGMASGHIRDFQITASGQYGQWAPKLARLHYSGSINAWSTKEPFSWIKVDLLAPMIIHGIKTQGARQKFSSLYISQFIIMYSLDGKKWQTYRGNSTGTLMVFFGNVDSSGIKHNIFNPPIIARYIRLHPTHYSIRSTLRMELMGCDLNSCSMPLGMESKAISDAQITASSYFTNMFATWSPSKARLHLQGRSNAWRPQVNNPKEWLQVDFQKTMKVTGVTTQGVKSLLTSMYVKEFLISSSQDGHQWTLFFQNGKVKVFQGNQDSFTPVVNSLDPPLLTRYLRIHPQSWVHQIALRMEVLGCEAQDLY
Description: The techniques described above were employed to isolate high affinity binding molecules for ligands for recombinantly produced factor VIII-like polypeptide consisting of two segments of human factor VIII, i.e., amino acids 1-743 and 1638 through 2332 of human factor VIII, as described in U.S. Pat. No. 5,661,008 (Almstedt et al.), obtained under the commercial designation of REFACTO® from Genetics Institute, Inc. (Cambridge, Mass.). The REFACTO® target was provided at a concentration of about 530 μg/ml (7800 IU/ml) in 19.4 mM His, 300 mM NaCl, 3.4 mM CaCl2 and 0.1% Tween 80, pH 7.0.
Three libraries, designated TN7 (5×10^9 amino acid sequence diversity), TN8 (6×10^9 amino acid sequence diversity), and TN9 (5×10^9 amino acid sequence diversity), were constructed for expression of diversified polypeptides on M13 phage. Each library was screened for binders to purified REFACTO®. Each of the libraries was constructed to display a microprotein based on an 11- or 12-amino acid template. The TN7 library utilized a template sequence of Xaa-Xaa-Cys-Xaa-Xaa-Xaa-Xaa-Xaa-Cys-Xaa-Xaa; the TN8 library utilized a template sequence of Xaa-Xaa-Cys-Xaa-Xaa-Xaa-Xaa-Xaa-Xaa-Cys-Xaa-Xaa; the TN9 library utilized a template sequence of Xaa-Cys-Xaa-Xaa-Xaa-Xaa-Xaa-Xaa-Xaa-Cys-Xaa.
(§1) Three rounds of screenings were carried out for each library. At the conclusion of the third round of screening eluted phage were propagated, and individual isolates from each library (96 per elution condition) were selected randomly and tested by standard ELISA techniques for binding to the factor VIII target. Bound phage were detected with HRP conjugated anti-M13 polyclonal antibody (Pharmacia). TMB Peroxidase substrate was used for HRP in the ELISA detection mechanism. TMB substrate produces a blue color after peroxidase digestion. The color is quantitated by absorbance at OD630. Phage isolates that provided a significant signal (OD630>0.25) above background were considered positive clones.
Sequence data from the phage isolates were grouped by library and sorted according to the degree of similarity. The frequency at which any given sequence was obtained was noted since this indicates selection for a specific binder.
“A09 (FHCIGVWFCLH; Selected Phage Display Sequence)” showed an ELISA signal of 0.1.
Substance “A06 (HSCGSWLFPCFA; Selected Phage Display Sequence)” has an ELISA signal of 0.5.
With “D03 (PHCNWLFPCSL; Selected Phage Display Sequence)” the ELISA signal was 0.2.
“C5/G10 (RLCSWVSPCSA; Selected Phage Display Sequence)” gave an ELISA signal of 0.5.
With “D04 (RLCSWISPCSA; Selected Phage Display Sequence)” the ELISA signal was 0.3.
Substance “A08 (FGCSWLFPCPF; Selected Phage Display Sequence)” has an ELISA signal of 0.4.

Same assay, conditions: TN8 library phage isolates; HRP anti-M13, TMB, absorbance at OD630
Work on “05 (RGCGSWLRPCLD; Selected Phage Display Sequence) [compound 05]” yielded an ELISA signal of 0.2.
“08 (HPCGAWLRPCYN; Selected Phage Display Sequence) [compound 08]” gave an ELISA signal of 1.0.
Substance “07 (HACGSWFRPCHA; Selected Phage Display Sequence) [compound 07]” has an ELISA signal of 0.4.
In the case of “10 (HPCGSWLRPCLH; Selected Phage Display Sequence) [compound 10]”, the ELISA signal is reported as 1.0.
“11/G10 (HRCGSWLHPCLA; Selected Phage Display Sequence)” gave an ELISA signal of 0.3.

Same assay, conditions: TN9 library phage isolates; HRP anti-M13, TMB, absorbance at OD630
In the case of “11 (FCHVFPFLHCD; Selected Phage Display Sequence) [compound 11]”, the ELISA signal is reported as 0.2.
Work on “09 (FCWVFPFQHCA; Selected Phage Display Sequence) [compound 09]” yielded an ELISA signal of 1.1.
With “03 (FCWVFNFSHCS; Selected Phage Display Sequence) [compound 03]” the ELISA signal was 1.1.
With “06 (FCWVFPFHHCF; Selected Phage Display Sequence) [compound 06]” the ELISA signal was 0.3.

Each substance was assayed against T2, factor VIII target (Homo sapiens, UniProt P00451) (assay: Phage ELISA of high scoring isolates from rounds 2 and 3, with versus without target). Conditions: phage isolates from rounds 2 and 3.
T2 construct: amino acids 1-743 and 1638 through 2332 of human factor VIII; purchased Genetics Institute, Inc. (Cambridge, Mass.)
T2 sequence (P00451 20-762): T1 sequence (P00451 20-762)
T2 sequence (P00451 1657-2351): T1 sequence (P00451 1657-2351)
Format: binding
Description: During analysis of the specific polypeptides of the invention, three libraries were isolated and screened. […] These libraries were designated TN7/1, TN8/6 anf TN9/1. In addition, important consensus sequences were determined.
as §1, with “clones. […]” for “clones.”
For “HPCGSWLHPCAA (cysteine pairing not given here) [TN8 isolate 04]”, the “R, ratio of the ELISA score with target present to the ELISA score without target” value (shortened to “R, ratio … to the ELISA score without target”) was 6.
With “FCWVFQFRHCH (Selected Phage Display Sequence) [Phe-Cys-Trp-Val-Phe-Q-Phe-Arg-His-Cys-His]” the “R, ratio … to the ELISA score without target” value was 8.
In the case of “RLCSWISPCSA (cysteine pairing not given here) [TN7 isolate D04]”, the “R, ratio … to the ELISA score without target” value is reported as 6.
For “FCHVFNFVHCS (cysteine pairing not given here) [TN9 isolate 01]”, the “R, ratio … to the ELISA score without target” value was 8.
With “HRCGSWLHPCLA (cysteine pairing not given here) [TN8 isolate 11/G10]” the “R, ratio … to the ELISA score without target” value was 6.
With “HPCGSWFNPCAH (cysteine pairing not given here) [TN8 isolate 02]” the “R, ratio … to the ELISA score without target” value was 8.
In the case of “HPCGSWFRPCFH (cysteine pairing not given here) [TN8 isolate 02]”, the “R, ratio … to the ELISA score without target” value is reported as 16.
“FCWVFPFQHCA (cysteine pairing not given here) [TN9 isolate 09]” was tested, and the “R, ratio … to the ELISA score without target” value was 24.
For “HLCFAWFRPCDA (cysteine pairing not given here) [TN8 isolate 12]”, the “R, ratio … to the ELISA score without target” value was 8.
“HPCGSWLRPCLH (cysteine pairing not given here) [TN8 isolate 10]” was tested, and the “R, ratio … to the ELISA score without target” value was 16.
With “FCWVFPFNHCS (cysteine pairing not given here) [TN9 isolate 12]” the “R, ratio … to the ELISA score without target” value was 18.
In the case of “HLCGAWFRPCDA (cysteine pairing not given here) [TN8 isolate 02]”, the “R, ratio … to the ELISA score without target” value is reported as 6.
For “FCWVFAFDHCH (Selected Phage Display Sequence) [Phe-Cys-Trp-Val-Phe-Ala-Phe-Asp-His-Cys-His]”, the “R, ratio … to the ELISA score without target” value was 24.
“HSCGSWLFPCFA (cysteine pairing not given here) [TN7 isolate A06]” was tested, and the “R, ratio … to the ELISA score without target” value was 10.
In the case of “FCWVFPFNHCD (cysteine pairing not given here) [TN9 isolate 02]”, the “R, ratio … to the ELISA score without target” value is reported as 8.
With “FCWVFNFSHCS (cysteine pairing not given here) [TN9 isolate 03]” the “R, ratio … to the ELISA score without target” value was 24.
“HACGSWFRPCHA (cysteine pairing not given here) [TN8 isolate 07]” was tested, and the “R, ratio … to the ELISA score without target” value was 6.
For “FCWVFPFHHCF (cysteine pairing not given here) [TN9 isolate 06]”, the “R, ratio … to the ELISA score without target” value was 6.
“RLCSWVSPCSA (cysteine pairing not given here) [TN7 isolate C5/G10]” was tested, and the “R, ratio … to the ELISA score without target” value was 10.
“HPCGAWLRPCYN (cysteine pairing not given here) [TN8 isolate 08]” was tested, and the “R, ratio … to the ELISA score without target” value was 20.
“FCWVFNWVHCD (Selected Phage Display Sequence) [Phe-Cys-Trp-Val-Phe-Asn-Trp-Val-His-Cys-Asp]” was tested, and the “R, ratio … to the ELISA score without target” value was 14.
With “FGCSWLFPCPF (cysteine pairing not given here) [TN7 isolate A08]” the “R, ratio … to the ELISA score without target” value was 8.

— patent publication US9156883B2, “Binding molecules for human factor VIII and factor VIII-like proteins” (DYAX CORP., priority 1999, dated 2015)
